Test results as given in patent publication US20250171560A1.

T1: C-terminal flag-tagged ACPP transmembrane protein expressed on 293T cells (pcDNA-ACPP-flag)
T1 sequence: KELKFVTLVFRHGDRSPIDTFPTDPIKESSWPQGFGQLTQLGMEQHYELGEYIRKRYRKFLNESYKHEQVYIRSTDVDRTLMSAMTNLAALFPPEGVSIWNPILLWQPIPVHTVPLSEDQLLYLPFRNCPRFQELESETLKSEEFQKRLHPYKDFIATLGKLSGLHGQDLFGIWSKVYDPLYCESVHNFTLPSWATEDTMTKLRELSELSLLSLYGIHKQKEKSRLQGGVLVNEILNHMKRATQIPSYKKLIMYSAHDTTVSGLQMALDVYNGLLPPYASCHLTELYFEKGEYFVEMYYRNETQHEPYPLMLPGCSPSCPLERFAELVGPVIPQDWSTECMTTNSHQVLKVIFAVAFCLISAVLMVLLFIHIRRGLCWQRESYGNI

B1: ACPP antibody S12D4 (human full antibody) (antibody, V domains shown)
VH: QMQLVQSGAEVRRPGSSVKVSCKTSGGTLNNYDINWVRQAPGQGLEWMGWMNPTSGQADFAQKFQGRVSMTRDTSINTAFMELNTLRSEDTAVYYCVRRGGKYWGQGTLVTVSS
VL: QPVLTQDPAVSVALGQTVRITCQGDSLRKYYASWYQQKPGQAPRLVMYDENDRPSGIPDRFSGSSSGNTASLTITGAQADDEADYYCNSRDSSGHHVVFGGGTKVTVL
B2: ACPP antibody S4C7 (human full antibody) (antibody, V domains shown)
VH: QMLVQSGAEVKRPGSSVTVSCETSGDTFSRYAISWLRQAPGQGLEWLGWISGNSGRADYAQNFQGRVTMTTDRSTSTAYLNLRSLRSDDTAVYYCARDAPMLFGVRGGGYYFGMDVWGQGTTVTVSS
VL: EIVLTQSASSLSASVGDRVTITCRTSQNIYRYLNWYQQKPGKAPKLLIFGASTLQTGVPSRFSGSGSGTDFTLTITGLQPEDLATYYCQHSFKLPFTFGQGTRLEIK
B3: ACPP antibody S12D9 (human full antibody) (antibody, V domains shown)
VH: EVQLVQSGAEVRKPGSSVKVSCKASGDNFNNYGITWVRQAPGQGLEWMGRLITVLGLDNYAQKFQGRLTITADESTGTAYMELTGLEPEDTAVYYCARDIMSPEAIDAFDVWGQGTLVTVSS
VL: QPVLTQDPVVSVALGQTVRITCQGDSLRSYYATWYQQKPGLAPVRVIFGKNSRPSGIPDRFSGSSSGNTASLTITGAQAEDEADYYCNSWDNSANHPVFGGGTKLTVL
B4: ACPP antibody S10E12 (human full antibody) (antibody, V domains shown)
VH: B3 VH
VL: DIQMTQSPSSLSASVGDRVTITCRASQDVSNYLNWYQQKPGKAPKLLIYGASNRQTGVPSRFSGSGSGTDFTLTISSLQPEDFATYYCQQEDRFPTTFGQGTKVEIK
B5: ACPP antibody S9F5 (human full antibody) (antibody, V domains shown)
VH: EVQLVESGGGLVQPGGSLRLSCAASGFTFSNYWMSWVRQAPGKGLEWVAGISASGGNKYYADSVKGRFTISRDNSKNTLYLQMNSLRAEDTAVYYCAKGPIQLKRHKYVLDYWGQGTLVTVSS
VL: SYELTQPPSVSVAPGQTARITCGGDALPNNSVRWYQQKPGQAPVLVIYGNSERPSGIPERFSGSNSGNTATLTISGTQAEDEADYYCQVSDKSTKYSVFGGGTKLTVL

Each binder was assayed against T1, C-terminal flag-tagged ACPP transmembrane protein expressed on 293T cells (pcDNA-ACPP-flag) (assay: flow cytometry on 293T cells transfected with pcDNA-ACPP-flag, surface staining without permeabilisation, goat anti human-FITC secondary antibody).

| % of cells in the positive gate V1R [%] | Binder |
| --- | --- |
| 0.06 | B1 |
| 0.1 | B2 |
| 0.01 | B3 |
| 0.18 | B4 |
| 0.15 | B5 |
